Stoichiometry N data for 1 substance are collected here from publication PMC12216678.

The target in this experiment is mouse FXII^HC5 (mouse). The experiment is described as follows: native MS; buffer-exchanged into 1 M ammonium acetate pH 7.0, electrospray, Bruker maXis qTOF, native-favouring source conditions.

The substance mouse FXII^HC5 (domain or fragment) displayed a stoichiometry N of 2.

The term stoichiometry N denotes a count of units in the complex or per binding partner.
